Assay results taken from paper PMC4789793, “Noggin4 is a long-range inhibitor of Wnt8 signalling that regulates head development in Xenopus laevis” (Scientific Reports, 2016).
Each block holds one binder with its values, some of them ahead of it.

Experiments:
[1] = molecular target: Myc-Noggin4 (Xenopus laevis); test: co-IP; quantitative co-immunoprecipitation (qCoIP): gradually decreasing concentrations of Flag-Wnt8 added to a standard amount of Myc-Noggin4 pre-mixed with anti-Myc resin; bound and unbound Flag-Wnt8 by quantitative Western blot against Flag-BAP standard
[2] = molecular target: 3Myc-His6-Noggin4 (Xenopus laevis); test: SPR; Biacore T200; 3Myc-6His-Noggin4 immobilised on CM5 chip (1,500 RU) by amine coupling; 6His-Wnt8 injected; HBS-EP, 25 °C; equilibrium responses fitted to a 1:1 Langmuir model
TagRFP-XWnt8 = molecular target: T1, TagRFP-XWnt8 (Xenopus laevis, UniProt P28026 23-358); test: FRAP in living embryos; EGFP-Noggin4 bleached in a single intercellular space of the animal ectoderm that also holds TagRFP-Wnt8 (quasi-immobile); about 1 μM of each; Kd selected to fit the FRAP kinetics by a diffusion-adsorption model; settings: partners not purified
T1 construct: Wnt8 (XWnt8), Xenopus laevis, secreted fusion with TagRFP; also called TagRFP-Wnt8
T1 sequence (looked up): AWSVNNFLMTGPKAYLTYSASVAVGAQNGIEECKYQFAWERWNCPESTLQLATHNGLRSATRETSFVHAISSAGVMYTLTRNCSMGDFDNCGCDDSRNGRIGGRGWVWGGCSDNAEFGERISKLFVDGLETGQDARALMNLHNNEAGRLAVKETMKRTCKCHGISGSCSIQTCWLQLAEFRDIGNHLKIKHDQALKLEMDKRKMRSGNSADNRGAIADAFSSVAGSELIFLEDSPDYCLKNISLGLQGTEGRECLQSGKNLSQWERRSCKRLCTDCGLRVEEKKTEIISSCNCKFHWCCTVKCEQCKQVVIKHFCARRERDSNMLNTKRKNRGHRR

Kd [1]: 10 nM
B1: Flag-Wnt8 (ligand)
chain: T1 sequence (looked up)

Kd [2]: 90 nM
B2: Xenopus laevis recombinant Wnt8 labeled by 6-Hys-tag at the N-terminus (ligand)
chain: T1 sequence (looked up)

Kd (TagRFP-XWnt8): ≤ 100 nM
B3: EGFP-Noggin4 (natural protein)
chain: MVHILVISWLMTLGTWGPTAICAPTNDLEPHNRTQKDMDIGSLRRQLSSGTRPYSLSLSPQDYHYSPKPKHLRVSRLLRLLGSSFDPFWMSVEQPADYSTSLLSTLSQDLYDGASRYRKKLAQEVQGLNFDSLQLPTELSANASQNIQNEIRQWLVQRASCQLTSTWVDLGTVFWPRWVRHTDCDGTNTACSWPPGMACRQAQFTQIKLLAWHCWMKDTGLGWATQQCTWRQVPYPVVAACKCTCR
modifications: No candidate is Noggin4 (P49011 is Noggin1). The paper reports two pseudoalleles and does not say which was used, so nog4.L is assumed. The Table S1 primers show the mature part starting at GQTNDL …
